Measurements as given in patent US20260258121A1, “USES OF POMC-SPECIFIC ANTIBODY AND MARCHF6” (KOREA UNIVERSITY RESEARCH AND BUSINESS FOUNDATION, priority 2023, published 2026).

T1: POMC (Homo sapiens, UniProt P01189)
T1 construct: expressed in transfected cells; host or cells: HEK293T
T1 sequence (P01189 1-267): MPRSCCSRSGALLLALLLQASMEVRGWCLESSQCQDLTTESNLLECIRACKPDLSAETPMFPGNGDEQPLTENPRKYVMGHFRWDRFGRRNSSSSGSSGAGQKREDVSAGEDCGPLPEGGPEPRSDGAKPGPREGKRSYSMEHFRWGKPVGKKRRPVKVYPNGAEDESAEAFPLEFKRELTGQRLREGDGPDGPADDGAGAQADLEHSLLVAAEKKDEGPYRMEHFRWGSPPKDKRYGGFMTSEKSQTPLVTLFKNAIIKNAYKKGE

T2: GST-POMC fragments (Homo sapiens, UniProt P01189)
T2 construct: purified GST, GST-POMC^1-76, GST-POMC^27-76, or GST-POMC^1-26 was incubated with 50 μl of glutathione Sepharose beads; made in house; Marchf63f came from an extract of transfected HEK293T cells
T2 sequence (P01189 1-26): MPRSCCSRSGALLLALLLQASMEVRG

T3: GST-POMC fragments (Homo sapiens, UniProt P01189)
T3 construct: purified GST, GST-POMC^1-76, GST-POMC^27-76, or GST-POMC^1-26 was incubated with 50 μl of glutathione Sepharose beads; made in house; Marchf63f came from an extract of transfected HEK293T cells
T3 sequence (P01189 1-76): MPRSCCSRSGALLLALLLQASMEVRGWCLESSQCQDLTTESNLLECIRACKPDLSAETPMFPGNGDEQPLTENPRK

T4: GST-POMC fragments (Homo sapiens, UniProt P01189)
T4 construct: purified GST, GST-POMC^1-76, GST-POMC^27-76, or GST-POMC^1-26 was incubated with 50 μl of glutathione Sepharose beads; made in house; Marchf63f came from an extract of transfected HEK293T cells
T4 sequence (P01189 27-76): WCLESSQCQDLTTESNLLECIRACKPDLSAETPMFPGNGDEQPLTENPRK

B1: Marchf63f: wild-type C-terminal triple flag-tagged Marchf6 (membrane associated ring-CH-type finger 6), expressed from pCH879 (protein, UniProt Q6ZQ89 1-909, looked up)
E3 ubiquitin-protein ligase …: MDTAEEDICRVCRSEGTPEKPLYHPCVCTGSIKFIHQECLVQWLKHSRKEYCELCKHRFAFTPIYSPDMPSRLPIQDIFAGLVTSIGTAIRYWFHYTLVAFAWLGVVPLTACRIYKCLFTGSVSSLLTLPLDMLSTENLLADCLQGCFVVTCTLCAFISLVWLREQIVHGGAPIWLEHAAPPFNAAGHHQNEAPVGGNGAENPAADQPANPAGENAVLGENPDAQDGQAEEEEEDNEEEDDAGVEDAADANNGAQDDMNWNALEWDRAAEELTWERMLGLDGSLVFLEHVFWVVSLNTLFILVFAFCPYHIGHFSLVGLGFEEHVQASHFEGLITTIVGYILLAITLIICHALATLVKFHRSRRLLGVCYIVVKVSLLVVVEIGVFPLICGWWLDICSLEMFDATLKDRELSFQSAPGTTMFLHWLVGMVYVFYFASFILLLREVLRPGVLWFLRNLNDPDFNPVQEMIHLPIYRHLRRFILSVIVFGSIVLLMLWLPIRIIKSLLPNFLPYNVMLYSDAPVSELSLELLLLQVVLPALLEQGHTRQWLKGLVRAWTVTAGYLLDLHSYLLGDQEENENSANQQVNNNQPARNNNAVPAGEGLHAAHQAILQQGGPVGFQPYRRPLNFPLRIFLLIVFMCITLLIASLICLTLPVFAGRWLMSFWTGTAKIHELYTAACGLYVCWLTIRAVTVLVAWMPQGRRVIFQKVKEWSLMIMKTLIVAVLLAGVVPLLLGLLFELVIVAPLRVPLDQTPLFYPWQDWALGVLHAKIIAAITLMGPQWWLKTVIEQVYANGIRNIDLHYIIRKLAAPVISVLLLSLCVPYVIASGAVPLLGVTAEMQNLVHRRIYPFLLMVVVLMGILSFQVRQFKRLYEHIKNDKYLVGQRLVNYERKSGKQGPSTPPPVSSQE
modifications: C-terminal triple FLAG tag
notes: wild-type C-terminal triple flag-tagged Marchf6 (membrane associated ring-CH-type finger 6), expressed from pCH879

Key:
[1] = test system: 4-hydroxynonenal (4HNE); assay: Immunoblotting of 4-HNE in POMCha-overexpressing N43/5 cells; type: cell-based, mouse; conditions: Fer-1 5 μM, 24 h
[2] = test system: POMCha-overexpressing Marchf6-KO N43/5 cells; assay: Cell viability (CellTiter-Glo) of POMCha-overexpressing Marchf6-KO N43/5 cells; type: cell-based, mouse
Description: To understand the functional or mechanistic association between Marchf6-mediated POMC degradation and ferroptosis, lipid ROS levels were compared in N43/5 cells overexpressing POMCha using a lipid peroxidation sensor C11-BODIPY^581/591. Specifically, WT or Marchf6-KO N43/5 cells were transfected with pCH4129 (POMCha) for 48 hours, and the medium was replaced with a culture medium containing 2 μM C11-BODIPY^581/591 (Thermo Fisher Scientific, D3861). The cells were incubated at 37° C. for 30 minutes, and the fluorescent probe-treated cells were trypsinized, transferred to a 15 ml Falcon tube, washed three times with 1 ml of ice-cold PBS, and then transferred to an ice-cold round-bottom polystyrene tube (Corning, 352235). The amount of intracellular lipid ROS in […] was measured using CytoFLEX LX (Beckman Coulter) using fluorescein isothiocyanate (FITC) and analyzed using FlowJo v10.8.1 (BD Bioscience). In addition, cell viability was analyzed using a CellTiter-Glo luminescent 3D cell viability assay kit (Promega, G9241) and a multimode plate reader (TECAN, Spark 10 M). At this time, when the inhibition of cell death was evaluated, WT or Marchf6-KO N43/5 cells expressing pCH60 (empty vector) or pCH4129 (POMCha) (final concentration of […] each) were treated with 5 μM Fer-1, 20 μM Z-VAD-FMK or 40 μM Nec-1, and incubated for 24 hours, and cell viability was analyzed. In addition, the intracellular NADP(H) level was measured using a NADP/NADPH-Glo assay kit (Promega, G9081) and a multimode plate reader (TECAN, Spark 10 M). Further, LDH activity was measured using the Cytotoxicity Detection Kit Plus (LDH) (Sigma, 4744926001).
Through Examples, since Marchf6 mediated the degradation of POMC, it was expected that loss of Marchf6 would make POMC neurons hypersensitive to POMC-induced ferroptosis. Therefore, pCH60 (empty vector), pCH879 (Marchf63f), pCH880 (Marchf6flag^C9A), or pCH4170 (Marchf6flag^P460A) was transfected into WT or Marchf6-KO N43/5 cells, and the degree of ferroptosis induction in POMC neurons was analyzed as in Example 6-1.

[3] = test system: Gpx4, CHOP, Nox2, and Nox4; assay: Immunoblotting of Gpx4, CHOP, Nox2 and Nox4 in POMCha-overexpressing Marchf6-KO N43/5 cells; type: cell-based, mouse
[4] = target: T1, POMC; assay: Chemical crosslinking-based reciprocal co-immunoprecipitation assay in HEK293T cells; type: binding; conditions: DSP crosslinking
Description: For the chemical crosslinking-based reciprocal co-immunoprecipitation assay, HEK293T cells were incubated at […] in a 10-cm dish plate and co-transfected with […] of pCH60 (empty vector) or pCH4129 (exogenous C-terminally hemagglutinin (ha)-tagged POMC: POMCha) and pCH879 (wild-type C-terminal triple flag-tagged Marchf6: Marchf63f) or pCH4170 (Marchf6^P460A) and incubated for 48 hours. The cells were washed with PBS, treated with 1 mM DSP [dithiobis(succinimidyl propionate)] (Thermo Fisher, 22585), and then the crosslinked cells were lysed and immunoprecipitated. The beads were washed three times with an IP-wash buffer (20 mM Tris-HCl, 137 mM NaCl, 0.1% NP-40, 2 mM EDTA, 10% glycerol) and bound proteins were eluted with a 2× SDS sample buffer. For immunoprecipitation with FLAG-agarose (Sigma-Aldrich, A2220), a 3× FLAG peptide (Protein Ark, GEN-3XFLAG-5) was used. Thereafter, the eluate was denatured and heated at 37° C. for 20 minutes, and SDS-PAGE and immunoblotting were performed using the corresponding antibody.

[5] = target: T2, GST-POMC fragments; assay: GST pull-down assay; type: binding; conditions: extract of HEK293T cells expressing Marchf63f
Description: (§1) To clarify a POMC domain binding to the C4 domain of Marchf6, a Y2H assay was performed using a set of POMC fragments in which the C4 of Marchf6 and the C-terminus (Ct-) of POMC were cleaved. To this end, pCH4540 (C4), pCH4132 (POMC), or cleaved forms thereof pCH4235 (POMC^1-76), pCH4236 (POMC^1-87), pCH4237 (POMC^1-102), pCH4238 (POMC^1-137), and pCH4239 (POMC^1-176) were co-transformed into CHY726 and spotted on a SC(-Leu/-Trp) or SC(-Leu/-Trp/-His) plate and analyzed as in Example above. In addition, for interaction analysis between full-length Marchf6 and POMC, a split-Ub assay was performed by transforming S. cerevisiae CHY712 with pCH836 (Marchf6) or pCH4311 (Marchf6^P460A) as bait and pCH4203 (POMC^1-267), pCH4204 (POMC^77-267), or pCH4313 (POMC^1-76) as prey. In addition, for glutathione-S-transferase (GST) pull-down assay, […] of purified GST, GST-POMC^1-76, GST-POMC^27-76, or GST-POMC^1-26 was incubated with 50 μl of glutathione Sepharose beads (Cytiva, 17-0756-05) at 4° C. for 2 hours.
(§2) HEK293T cells transfected with pCH879 (Marchf63f) were lysed with a lysis buffer (50 mM Tris-HCl, 150 mM NaCl, 1 mM EDTA, 1% NP-40, pH 7.6) containing 1× protease inhibitor cocktail to obtain an extract, and the extract and the beads were further incubated at 4° C. for 2 hours, and then washed three times with 0.5 ml of GST-wash buffer (20 mM Tris-HCl, 137 mM NaCl, 2 mM EDTA, 0.5% NP-40, 10% glycerol, pH 7.6). Proteins binding to the beads were eluted with a 2× SDS-sample buffer, heated at 37° C. for 20 minutes, subjected to SDS-PAGE, Coomassie blue staining, and immunoblotting using anti-flag antibody.

[6] = target: T3, GST-POMC fragments; assay: GST pull-down assay; type: binding; conditions: extract of HEK293T cells expressing Marchf63f; remark: listed apart in the source
Description: as §1, §2

[7] = target: T4, GST-POMC fragments; assay: GST pull-down assay; type: binding; conditions: extract of HEK293T cells expressing Marchf63f; remark: listed apart in the source
Description: as §1, §2

Molecule	level of 4-hydroxynonenal (4HNE) increased by overexpression of POMCha, effect of treatment [1]	decreased viability of POMCha-overexpressing Marchf6-KO N43/5 cells, effect of treatment ([2]; 5 μM Fer-1, 24 hours)	reduced viability of POMCha-overexpressing Marchf6-deficient N43/5 cells, effect of ectopic expression ([2]; ectopic expression by transfection)	expression levels of Gpx4, CHOP, Nox2, and Nox4 proteins, effect of expression of construct [3]	binding of full-length POMC (co-immunoprecipitation) [4]	binding to GST-POMC^1-26 [5]	binding to GST-POMC^1-76 [6]	binding to GST-POMC^27-76 [7]
CCOC(=O)c1ccc(NC2CCCCC2)c(N)c1 [Fer-1, ferrostatin-1, reference compound]	restored	restored	–	–	–	–	–	–
B1	–	–	restored	restored	specifically bound	hardly bound	directly bound	very weakly bound
